Assay results taken from PMC10397247.

Key:
Assay in all cases: two-hybrid library CCNG1;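 also: natural log of median RNA to DNA barcode read ratio; higher means stronger binding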
O16 = target: T1, O16
T1 chain: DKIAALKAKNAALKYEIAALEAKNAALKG

O5 = target: T2, O5
T2 chain: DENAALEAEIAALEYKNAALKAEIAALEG

O11 = target: T3, O11
T3 chain: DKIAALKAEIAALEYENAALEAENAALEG

O8 = target: T4, O8
T4 chain: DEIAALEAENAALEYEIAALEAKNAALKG

O7 = target: T5, O7
T5 chain: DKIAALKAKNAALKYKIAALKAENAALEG

O4 = target: T6, O4
T6 chain: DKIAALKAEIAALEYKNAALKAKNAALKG

O9 = target: T7, O9
T7 chain: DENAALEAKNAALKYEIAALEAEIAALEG

O12 = target: T8, O12
T8 chain: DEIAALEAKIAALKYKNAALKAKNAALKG

O3 = target: T9, O3
T9 chain: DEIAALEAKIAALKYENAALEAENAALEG

P3A-bS = target: T10, P3A-bS
T10 chain: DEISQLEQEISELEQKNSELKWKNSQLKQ

O2 = target: T11, O2
T11 chain: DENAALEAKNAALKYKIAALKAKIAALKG

O14 = target: T12, O14
T12 chain: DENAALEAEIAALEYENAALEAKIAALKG

O15 = target: T13, O15
T13 chain: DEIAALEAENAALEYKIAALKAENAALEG

O6 = target: T14, O6
T14 chain: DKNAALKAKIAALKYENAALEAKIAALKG

O13 = target: T15, O13
T15 chain: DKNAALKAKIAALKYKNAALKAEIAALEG

4H730-bA = target: T16, 4H730-bA
T16 chain: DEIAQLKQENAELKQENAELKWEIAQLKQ

4H3364-bA = target: T17, 4H3364-bA
T17 chain: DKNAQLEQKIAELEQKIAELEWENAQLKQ

O8-bS = target: T18, O8-bS
T18 chain: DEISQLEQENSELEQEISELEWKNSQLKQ

4H796-bA = target: T19, 4H796-bA
T19 chain: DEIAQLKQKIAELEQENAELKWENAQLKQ

4H932-bA = target: T20, 4H932-bA
T20 chain: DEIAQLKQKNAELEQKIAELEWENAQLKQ

4H949-bA = target: T21, 4H949-bA
T21 chain: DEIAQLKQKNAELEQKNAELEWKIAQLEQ

4H3381-bA = target: T22, 4H3381-bA
T22 chain: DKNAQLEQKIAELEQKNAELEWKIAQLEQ

4H56-bA = target: T23, 4H56-bA
T23 chain: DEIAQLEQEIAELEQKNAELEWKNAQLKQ

4H264-bA = target: T24, 4H264-bA
T24 chain: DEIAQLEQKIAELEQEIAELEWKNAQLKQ

4H3041-bA = target: T25, 4H3041-bA
T25 chain: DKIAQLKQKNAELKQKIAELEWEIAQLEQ

4H3297-bA = target: T26, 4H3297-bA
T26 chain: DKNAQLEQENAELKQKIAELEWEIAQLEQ

4H2859-bA = target: T27, 4H2859-bA
T27 chain: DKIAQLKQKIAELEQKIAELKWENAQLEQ

P5SH = target: T28, P5SH
T28 chain: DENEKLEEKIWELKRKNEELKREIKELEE

4H3427-bA = target: T29, 4H3427-bA
T29 chain: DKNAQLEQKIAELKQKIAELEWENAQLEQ

4H349-bA = target: T30, 4H349-bA
T30 chain: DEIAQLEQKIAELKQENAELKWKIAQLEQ

4H2760-bA = target: T31, 4H2760-bA
T31 chain: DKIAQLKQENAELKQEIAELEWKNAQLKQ

4H2931-bA = target: T32, 4H2931-bA
T32 chain: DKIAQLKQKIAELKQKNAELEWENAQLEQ

B1: O11 (peptide)
chain: DKIAALKAEIAALEYENAALEAENAALEG
interaction score (O16): -2.6
interaction score (O5): -2.06
interaction score (O11): -2.47
interaction score (O8): -2.51
interaction score (O7): -1.85
interaction score (O4): 1.77
interaction score (O9): -2.14
interaction score (O12): 2
interaction score (O3): -1.74
interaction score (P3A-bS): 0.868
interaction score (O2): -2.18
interaction score (O14): -2.48
interaction score (O15): -2.22
interaction score (O6): -2.37
interaction score (O13): -1.9

B2: 4H264-bA (peptide)
chain: DEIAQLEQKIAELEQEIAELEWKNAQLKQ
interaction score (4H730-bA): -1.63
interaction score (4H3364-bA): 0.942
interaction score (O8-bS): -1.91
interaction score (4H796-bA): -0.521
interaction score (4H932-bA): -0.419
interaction score (4H949-bA): -0.323
interaction score (4H3381-bA): 0.311
interaction score (4H56-bA): -0.504
interaction score (4H264-bA): 1.38
interaction score (4H3041-bA): 2.21
interaction score (4H3297-bA): 0.896
interaction score (4H2859-bA): 1.6
interaction score (P5SH): 1.79
interaction score (4H3427-bA): 1.19
interaction score (4H349-bA): -0.396
interaction score (4H2760-bA): -0.475
interaction score (4H2931-bA): 2.07
